{"source": "patent US20200400655A1", "about": "“RATIOMETRIC BRET MEASUREMENTS OF ATP WITH A GENETICALLY-ENCODED LUMINESCENT SENSOR” (Purdue Research Foundation, priority 2019, published 2020)", "key": {"[1]": {"assay": "ATP dose-response of purified mScarlet-ε-NanoLuc, luminescence BRET ratio on microplate reader", "type": "binding", "settings": "purified protein; for BRET ratio: n=3", "description": "(§1) Protein Engineering and Library Screen. Sensors were constructed by Gibson Assembly using the NEB HiFi kit, sub-cloned into the pRSETB vector for expression as His-tagged protein in BL21(DE3) E. coli, and purified by nickel-affinity chromatography. CeNL/pcDNA3 was a gift from Takeharu Nagai (Addgene plasmid #85199), pcDNA3-mNeonGreen was a gift from Richard Day (Indiana University), pCytERm-mScarlet_N1 was a gift from Dorus Gadella (Addgene plasmid #85066), and pBad-HisB-RRvT (Addgene plasmid #87364) and pBad-HisB-GRvT (Addgene plasmid #87363) were gifts from Robert Campbell. The fluorescence and luminescence ATP dose-response curves for purified protein solutions were measured on a BioTek Synergy H4 multi-mode microplate reader at ambient temperature. Luminescence was also measured using a Spectral Instruments Ami HT. Plasmids generated in this study are distributed via Addgene.\nThe fluorescence and luminescence of purified sensor proteins were investigated in assay buffer (50 mM MOPS-KOH, 50 mM KCl, 0.5 mM MgCl2, and 0.05% Triton X-100, pH 7.3) in a 96-well plate using a BioTek Synergy H4 multi-mode microplate reader at ambient temperature. For FRET library screening, 420/50 and 485/20 nm excitation filters and 485/20, 528/20, and 620/15 nm emission filters were used. For BRET screening, 20 μM coelenterazine-h was used as a substrate of NanoLuc and 450/50, 485/20, 528/20, and 620/15 nm emission filters were used. For characterization of mScarlet-ε-NanoLuc, 20 μM coelenterazine-h was applied to a reaction solution containing the purified sensor protein and 0-10 mM ATP in assay buffer. Luminescence spectra were scanned from 400 to 650 nm. Emissions of NanoLuc and mScarlet were measured using 450/50 and 620/15 nm emission filters, respectively, and the BRET efficiency was obtained by calculating the emission ratio of mScarlet/NanoLuc. Luminescence was also measured using a Spectral Instruments Ami HT with 510/20 and 650/20 nm emission filters (binning 2×2, FOV 25 cm, f-stop 1.2). Purified mScarlet-ε-NanoLuc protein in assay buffer with 0-10 mM ATP was imaged with a 1 sec exposure time after the addition of 20 μM coelenterazine-h. For measurements at different concentrations (1-100 nM) of mScarlet-ε-NanoLuc protein, the purified protein was mixed with 10 mM ATP or 0 mM ATP and imaged after the addition of 20 μM coelenterazine-h with a 5 sec exposure time for a total 30 min. Regions of interest were drawn over each well for all filter sets, and the average radiance was determined."}, "[2]": {"assay": "Library screen: FRET and BRET dynamic range of purified sensors after addition of saturating ATP", "type": "binding", "description": "as §1, with “Plasmids generated in this study are distributed via Addgene.” left out\n(§2) The fluorescence and luminescence of purified sensor proteins were investigated in assay buffer (50 mM MOPS-KOH, 50 mM KCl, 0.5 mM MgCl2, and 0.05% Triton X-100, pH 7.3) in a 96-well plate using a BioTek Synergy H4 multi-mode microplate reader at ambient temperature. […] Luminescence spectra were scanned from 400 to 650 nm. Emissions of NanoLuc and mScarlet were measured using 450/50 and 620/15 nm emission filters, respectively, and the BRET efficiency was obtained by calculating the emission ratio of mScarlet/NanoLuc. […]"}, "[3]": {"assay": "Ratiometric BRET imaging of purified mScarlet-ε-NanoLuc protein on SI Ami HT whole-animal imaging system", "type": "binding", "settings": "protein solutions", "description": "as §1, with “Plasmids generated in this study are distributed via Addgene.” left out\nas §2"}, "HEK293A cells [4]": {"test_system": "HEK293A cells", "assay": "Live single-cell BRET microscopy with metabolic inhibition", "type": "cell-based", "settings": "metabolic inhibition with 10 mM 2DG and 2.5 μM oligomycin A, ambient temperature", "method": "Live single-cell microscopy. The sensor genes were sub-cloned into the GW1 mammalian expression vector, and HEK293A cells were transfected by the calcium phosphate method. Cells were imaged with 30 second exposure times and 2 minute imaging interval on an Olympus IX83 microscope with a 40× 1.35 NA Apo oil objective, an Andor Xyla 4.2 sCMOS camera at 2-by-2 pixel binning, and 470/24 nm and 632/60 nm emission filters. Just prior to the addition of furimazine, well volume was exchanged twice with imaging media without glucose. After adding furimazine, a three point baseline was acquired. […] Cells were imaged for ˜30 minutes until luminescence decayed to background. Image backgrounds were subtracted before calculating the ratio images of the luminescence channels using ImageJ. […]\nAfter removing the plate from the incubator, cell growth media was exchanged for imaging media (15 mM HEPES, 120 mM NaCl, 3 mM KCl, 3 mM NaHCO3, 1.25 mM NaH2PO4, 10 mM glucose, 2 mM CaCl2, 1 mM MgCl2). Imaging regions were determined using mScarlet fluorescence and DIC. […] Cells were imaged until luminescence decayed to background (20-30 minutes). Image backgrounds were subtracted (rolling ball radus 100 pixels) before calculating the ratio images of the luminescence channels using ImageJ. […] For FIG. 3, binary masks were generated using channel luminescence to remove pixels in ratio image corresponding to background. […]"}, "HEK293A cells [5]": {"test_system": "HEK293A cells", "assay": "Bioluminescence imaging of adherent sensor-expressing cells in Spectral Ami, glucose vs metabolic inhibitors", "type": "cell-based", "settings": "for mScarlet-ε-NanoLuc ratio signal: n=6", "method": "HEK293A cells were transfected with plasmids carrying mScarlet-ε-NanoLuc by calcium phosphate method. One day after transfection, cells were passaged onto a 96-well plate at different cell densities from 1,250 to 20,000 cells per well. After an additional 24-48 hours, imaging was performed using a spectral Ami with 510/20 nm and 650/20 nm filters (5 sec exposure time, binning 2×2, FOV 25 cm, f-stop 1.2) immediately after the addition of 20 μM coelenterazine-h.\nWe first validated that we could measure differences in energy metabolism using adherent cell cultures. HEK293A cells expressing mScarlet-ε-NanoLuc were seeded at different densities, from 62,500 cells/cm^2 down to 4,000 cell/cm^2 to determine the sensitivity of detection in the Spectral Ami system. […] Thus, the sensor effectively detects metabolic differences in live cells in a dish within the animal imager."}, "[6]": {"assay": "Whole-animal imaging of purified sensor protein placed subcutaneously in mice", "type": "in vivo, Balb/c mice", "settings": "10 mM vs 0 mM ATP, subcutaneous hindlimb, unshaved mice, n=3", "method": "(§3) Animal Imaging System. All animal procedures were performed in strict accordance with recommendations provided in the National Institutes of Health (NIH) Guide for the Care and Use of Laboratory Animals, according to protocols approved by the Purdue Animal Care and Use Committee and the Purdue University Laboratory Animal Program to minimize pain and suffering. Male and female adult Balb/c and FVB mice were sacrificed and then injected with protein solution or live cells subcutaneously in the hind limb area. NanoLuc substrate, either 20 μM coelenterazine-h or 0.5× Promega Nano-Glo furimazine solution, was mixed with the sample just prior to injection. Protein, cells, and animals were imaged at ambient temperature. […] Therefore, in this study we used the SI Ami HT equipped with a 510/20 nm and 650/20 nm emission filters for all subsequent experiments.\nFor imaging of purified protein in mice, mScarlet-ε-NanoLuc protein pre-equilibrated with 0 mM or 10 mM ATP was mixed with 20 μM coelenterazine-h. The reaction mixture was enclosed in a custom plastic tube and placed subcutaneously in the left (0 mM ATP) and right (10 mM ATP) hindlimb areas of adult Balb/c mice carcass. The sequential imaging was immediately performed using a spectral Ami with 510/20 and 650/20 nm filters (30 sec exposure time, binning 2×2, FOV 25, f-stop 1.2). […]"}, "HEK293A cells [7]": {"test_system": "HEK293A cells", "assay": "Whole-animal imaging of sensor-expressing live cell suspensions injected subcutaneously in mice", "type": "in vivo", "settings": "10^6 live cells subcutaneous, unshaved adult FVB mice, n=6", "method": "as §3\nFor imaging of purified protein in mice, mScarlet-ε-NanoLuc protein pre-equilibrated with 0 mM or 10 mM ATP was mixed with 20 μM coelenterazine-h. […]\nWe next carried out ratiometric imaging of live cells injected in whole animals. […] The total luminescence intensity provides an indicator of the total protein expression level, and critically we observed that the BRET ratio was dependent on the metabolic condition only and was independent of the level of luminescence intensity (FIG. 5)."}}}
{"molecule": "mScarlet-ε-NanoLuc: BRET-only ATP sensor: mScarlet (N-terminus), B. subtilis ε subunit, NanoLuc (C-terminus); SEQ ID NO:1 (protein, mScarlet-e-NanoLuc) MVSKGEAVIKEFMRFKVHMEGSMNGHEFEIEGEGEGRPYEGTQTAKLKVTKGGPLPFSWDILSPQFMYGSRAFTKHPADIPDYYKQSFPEGFKWERVMNFEDGGAVTVTQDTSLEDGTLIYKVKLRGTNFPPDGPVMQKKTMGWEASTERLYPEDGVLKGDIKMALRLKDGGRYLADFKTTYKAKKPVQMPGAYNVDRKLDITSHNEDYTVVEQYERSEGRHSTGRHIDMKTVKVNITTPDGPVYDADIEMVSVRAESGDLGILPGHIPTKAPLKIGAVRLKKDGQTEMVAVSGGTVEVRPDHVTINAQAAETAEGIDKERAEAARQRAQERLNSQSDDTDIRRAELALQRALNRLDVAGKANEFMLEDFVGDWRQTAGYNLDQVLEQGGVSSLFQNLGVSVTPIQRIVLSGENGLKIDIHVIIPYEGLSGDQMGQIEKIFKVVYPVDDHHFKVILHYGTLVIDGVTPNMIDYFGRPYEGIAVFDGKKITVTGTLWNGNKIIDERLINPDGSLLFRVTINGVTGWRLCERILA", "values": [{"measurement": "BRET ratio", "setting": "[1]; 0 mM ATP", "value": "0.0063±0.0001"}, {"measurement": "BRET ratio", "setting": "[1]; 10 mM ATP", "value": "0.0324±0.009"}, {"measurement": "BRET ratio stability over time during luminescence intensity decay", "setting": "[1]", "value": "stable over time"}, {"measurement": "maximal change in BRET ratio upon ATP saturation", "setting": "[1]", "value": "greater than 4 fold"}, {"measurement": "Fold-Change in Ratio BRET", "setting": "[2]; after addition of saturating ATP, purified protein, 20 μM coelenterazine-h", "value": "5.12 ± 0.18"}, {"measurement": "change in the BRET ratio upon saturation with ATP", "setting": "[2]; purified sensor, zero to saturating ATP", "value": 5, "unit": "fold"}, {"measurement": "dynamic range in ATP dose response", "setting": "[3]", "value": 5, "unit": "fold"}, {"measurement": "change in the absolute BRET ratio", "setting": "HEK293A cells [4]", "value": "−71", "unit": "%"}, {"measurement": "difference in ratio signal, glucose vs metabolic inhibitors", "setting": "HEK293A cells [5]", "value": "~3", "unit": "fold"}, {"measurement": "mScarlet-ε-NanoLuc ratio signal", "setting": "HEK293A cells [5]; addition of glucose", "value": "0.29±0.04"}, {"measurement": "mScarlet-ε-NanoLuc ratio signal", "setting": "HEK293A cells [5]; metabolic inhibitors 2DG and oligomycin A", "value": "0.11±0.01"}, {"measurement": "difference in the ratio with vs without ATP imaged through tissue and fur", "setting": "[6]", "value": "greater than 3 fold"}, {"measurement": "ratio difference between glucose and inhibitor-treated cells through tissue and fur, compared with cell suspensions in a dish", "setting": "HEK293A cells [7]", "value": "same ratio difference"}]}
